# Numbering of substitutions follows the chain as printed.
# B1: hu.Ab5.H13L1 (antibody, human IgG1, kappa)
# heavy: not shown
# light: DIQVTQSPSSLSASVGDRVTITCQASENIANALAWYQQKPGKPPKFLIYGASNLASGVPSRFSGSGSGTDFTFTISSLQPEDIATYYCQQAYYGNSFVEGTFGGGTKVEIKRTVAAPSVFIFPPSDEQLKSGTASVVCLLNNFYPREAKVQWKVDNALQSGNSQESVTEQDSKDSTYSLSSTLTLSKADYEKHKVYACEVTHQGLSSPVTKSFNRGEC
# notes: fucosylated human IgG1; also called Ab5 variant
# B2: hu.Ab4.H1L1 (antibody, human IgG1, kappa)
# heavy: not shown
# light: DYQMTQSPSSLSASVGDRVTITCQASQSISSYLSWYQQKPGKRPKLLIYKASTLASGVPSRFSGSGSGTDFTLTISSLQPEDFATYYCQQGYTSSNIDNIFGGGTKVEIKRTVAAPSVFIFPPSDEQLKSGTASVVCLLNNFYPREAKVQWKVDNALQSGNSQESVTEQDSKDSTYSLSSTLTLSKADYEKHKVYACEVTHQGLSSPVTKSFNRGEC
# notes: also called hu.Ab4.H1Ll
# What was measured:
# S23A = biological target: T1, S23A; test: flow cytometry, HEK293 transfected with hCCR8 S23A with C-terminal FLAG; sheet prints [huCCR8]=0.02 ug/ml
# T1 construct: single alanine mutant of hCCR8; also called hCCR8 S23A
# T1 receptor chain: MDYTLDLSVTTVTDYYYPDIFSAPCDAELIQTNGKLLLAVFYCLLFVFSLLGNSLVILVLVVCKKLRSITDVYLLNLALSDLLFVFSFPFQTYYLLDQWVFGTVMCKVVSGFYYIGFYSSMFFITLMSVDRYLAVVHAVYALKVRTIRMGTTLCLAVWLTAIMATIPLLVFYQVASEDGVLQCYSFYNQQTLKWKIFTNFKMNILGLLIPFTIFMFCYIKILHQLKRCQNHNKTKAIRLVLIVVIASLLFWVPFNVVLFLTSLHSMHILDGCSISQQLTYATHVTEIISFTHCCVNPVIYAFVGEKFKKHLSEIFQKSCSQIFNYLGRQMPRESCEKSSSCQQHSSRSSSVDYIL
# Method: (§1) FIGS. 16A-16B depict the epitope maps for hu.Ab5.H13L1 (FIG. 16A) and hu.Ab4.H12L3 (FIG. 16B) mAbs.
# (§2) To epitope map fucosylated hu.Ab5.H13L1, the binding to alanine point mutations in human CCR8 was analyzed by flow cytometry.
# T13A = biological target: T2, T13A; test: flow cytometry, HEK293 transfected with hCCR8 T13A with C-terminal FLAG; sheet prints [huCCR8]=0.02 ug/ml
# T2 construct: single alanine mutant of hCCR8; also called hCCR8 T13A
# T2 receptor chain: T1 receptor chain with T13A, A23S
# Method: as §1, §2
# Y15A = biological target: T3, Y15A; test: flow cytometry, HEK293 transfected with hCCR8 Y15A with C-terminal FLAG; sheet prints [huCCR8]=0.02 ug/ml
# T3 construct: single alanine mutant of hCCR8; also called hCCR8 Y15A
# T3 receptor chain: T1 receptor chain with Y15A, A23S
# V12A = biological target: T4, V12A; test: flow cytometry, HEK293 transfected with hCCR8 V12A with C-terminal FLAG; sheet prints [huCCR8]=0.02 ug/ml
# T4 construct: single alanine mutant of hCCR8; also called hCCR8 V12A
# T4 receptor chain: T1 receptor chain with V12A, A23S
# L7A = biological target: T5, L7A; test: flow cytometry, HEK293 transfected with hCCR8 L7A with C-terminal FLAG; sheet prints [huCCR8]=0.02 ug/ml
# T5 construct: single alanine mutant of hCCR8; also called hCCR8 L7A
# T5 receptor chain: T1 receptor chain with L7A, A23S
# S8A = biological target: T6, S8A; test: flow cytometry, HEK293 transfected with hCCR8 S8A with C-terminal FLAG; sheet prints [huCCR8]=0.02 ug/ml
# T6 construct: single alanine mutant of hCCR8; also called hCCR8 S8A
# T6 receptor chain: T1 receptor chain with S8A, A23S
# hCCR8 D2A = biological target: T7, hCCR8 D2A (human, UniProt P51685 1-355); test: flow cytometry, HEK293 transfected with hCCR8 D2A with C-terminal FLAG
# T7 construct: alanine point mutant on transfected HEK 293 cells
# human CCR8 = human CCR8 (human, UniProt P51685 1-355); test: cell-based or functional assay
Binder,binding result (S23A),binding result (T13A),binding result (Y15A),binding result (V12A),binding result (L7A),binding result (S8A),binding result (hCCR8 D2A),"CCL1 blocking potency IC50, Ca2+ influx (human CCR8) [nM]"
B1,binds,binds,binds,binds,binds,binds,no binding (tested: 0.02 ug/ml),–
B2,–,–,–,–,–,–,–,57.9

# — US20230049152A1 (Genentech, published 2023)
